Blank lines part the entries; values can stand above or below the substance they belong to. Where no end group is shown, it is not given here. The star is where a group is joined. Palmitoyl = CCCCCCCCCCCCCCCC(=O)*
Assay: Compound gel-forming ability in water (visual inspection, tube tapping assay, tilted tube assay);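 also: peptides mixed with de-ionized water at about 22-25 °C, judged after 20 min by eye plus tube tapping (10 taps, moves counted) and 90° tilt mobility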
Type: physicochemical
Settings: for Physical property at 11% w/w: 11% w/w in aqueous solution, room temperature; for gel formation at 11% w/w: 11% w/w in water; for gel formation at 20% w/w: 20% w/w in water; for gel formation in aqueous solution, 6% / gel formation in aqueous solution, 11% / gel formation in aqueous solution, 20%: Table 3; for gel formation in aqueous solution, 11% / propensity to form gels, chimeric or mutated polypeptides, 11%: 11% w/w; for gel formation in aqueous solution, 20% / propensity to form gels, chimeric or mutated polypeptides, 20%: 20% w/w

Substance: Pal-QKLAHQIYQFTDKDVAPRSKISPQGY-NH2 (Palmitoyl-QKLAHQIYQFTDKDVAPRSKISPQGY-NH2; SMILES CCCCCCCCCCCCCCCC(=O)N[C@@H](CCC(N)=O)C(=O)N[C@@H](CCCCN)C(=O)N[C@@H](CC(C)C)C(=O)N[C@@H](C)C(=O)N[C@@H](Cc1c[nH]cn1)C(=O)N[C@@H](CCC(N)=O)C(=O)N[C@H](C(=O)N[C@@H](Cc1ccc(O)cc1)C(=O)N[C@@H](CCC(N)=O)C(=O)N[C@@H](Cc1ccccc1)C(=O)N[C@H](C(=O)N[C@@H](CC(=O)O)C(=O)N[C@@H](CCCCN)C(=O)N[C@@H](CC(=O)O)C(=O)N[C@H](C(=O)N[C@@H](C)C(=O)N1CCC[C@H]1C(=O)N[C@@H](CCCNC(=N)N)C(=O)N[C@@H](CO)C(=O)N[C@@H](CCCCN)C(=O)N[C@H](C(=O)N[C@@H](CO)C(=O)N1CCC[C@H]1C(=O)N[C@@H](CCC(N)=O)C(=O)NCC(=O)N[C@@H](Cc1ccc(O)cc1)C(N)=O)[C@@H](C)CC)C(C)C)[C@@H](C)O)[C@@H](C)CC) [SEQ ID NO:103]
Physical property at 11% w/w (Table 2): AS/IS (AS/IS for aqueous solution or insoluble)

gel formation at 11% w/w: liquid gel
gel formation at 20% w/w: liquid gel
Substance: Pal-KVQKLSAPVDPSSPHSY-miniPEG-Sar-RVYVHPA-NH2 [SEQ ID NO:216]

Substance: YRQSMNNFQGLRSFGCRFGTCTVQKLAHQIYQFTDKDKDNVAPRSKISPQGY-NH2 [SEQ ID NO:2, reference compound]
Physical property at 11% w/w (Table 1): SS (SS for semisolid gel)
gel formation in aqueous solution, 6% (6% w/w): AS/IS (AS/IS for aqueous solution or insoluble)
gel formation in aqueous solution, 11%: SS (SS for semisolid gel)

Substance: Pal-KPSSPHSY-NH2 (Palmitoyl-KPSSPHSY-NH2; SMILES CCCCCCCCCCCCCCCC(=O)N[C@@H](CCCCN)C(=O)N1CCC[C@H]1C(=O)N[C@@H](CO)C(=O)N[C@@H](CO)C(=O)N1CCC[C@H]1C(=O)N[C@@H](Cc1c[nH]cn1)C(=O)N[C@@H](CO)C(=O)N[C@@H](Cc1ccc(O)cc1)C(N)=O) [SEQ ID NO:118]
Physical property at 11% w/w (Table 2): SS (SS for semisolid gel)

Substance: Pal-SSPHSY-miniPEG-EAYKAAEKAYAAKEAAKEAAKAKAEKKAAYAKAKAAKYEKKAKKAAAEYKKK ({Palmitoyl-Ser-Ser-Pro-H2N-Ser-Tyr-miniPEG}-EAYKAAEKAYAAKEAAKEAAKAKAEKKAAYAKAKAAKYEKKAKKAAAEYKKK) [SEQ ID NO:245]
gel formation at 20% w/w: semisolid gel
gel formation in aqueous solution, 11%: AS/IS (AS/IS for aqueous solution or insoluble)
gel formation in aqueous solution, 20%: SS (SS for semisolid gel)
propensity to form gels, chimeric or mutated polypeptides, 11% (Table 5): AS/IS
propensity to form gels, chimeric or mutated polypeptides, 20% (Table 5): SS (An ability to form semisolid gel is represented by an SS)

Substance: Pal-SSPHSY-miniPEG-KCNTATCATQRLANFLVHSSNNFGPILPPTNVGSNTY-NH2 ({Palmitoyl-Ser-Ser-Pro-H2N-Ser-Tyr-miniPEG}-KCNTATCATQRLANFLVHSSNNFGPILPPTNVGSNTY-NH2; ends and bridges not checked) [SEQ ID NO:218]
gel formation at 6% w/w (6% w/w in water): semisolid gel
gel formation at 11% w/w: semisolid gel
gel formation in aqueous solution, 6% (6% w/w): SS (SS for semisolid gel)
gel formation in aqueous solution, 11%: SS (SS for semisolid gel)
propensity to form gels, chimeric or mutated polypeptides, 6% (Table 5, 6% w/w): SS (An ability to form semisolid gel is represented by an SS)
propensity to form gels, chimeric or mutated polypeptides, 11% (Table 5): SS (An ability to form semisolid gel is represented by an SS)

gel formation in aqueous solution, 11%: SS (SS for semisolid gel)
propensity to form gels, chimeric or mutated polypeptides, 3% (Table 5, 3% w/w): AS/IS
Substance: Pal-HSY-(D-Phe)-QWAVGHL-(4-Cl)Phe-NH2 [SEQ ID NO:255]
propensity to form gels, chimeric or mutated polypeptides, 11% (Table 5): SS (An ability to form semisolid gel is represented by an SS)

gel formation in aqueous solution, 11%: SS (SS for semisolid gel)
gel formation in aqueous solution, 20%: SS (SS for semisolid gel)
Substance: HAEGTFTSDVSSYLEGQAAREFIAWLVK(YSHPSS-Pal)GRG [SEQ ID NO:270]
propensity to form gels, chimeric or mutated polypeptides, 11% (Table 5): SS (An ability to form semisolid gel is represented by an SS)
propensity to form gels, chimeric or mutated polypeptides, 20% (Table 5): SS (An ability to form semisolid gel is represented by an SS)
